Source: patent US20260184814A1, “BROADLY NE[…] INFLUENZA NEURAMINIDASE” (priority 2022, published 2026)

Experiments:
[1] = target: IBV neuraminidase from B/Malaysia/2506/2004 (Victoria) (Influenza B virus B/Malaysia/2506/2004); assay: SPR (Biacore), NA on anti-Avi chip, 1:1 model; NA code BNA-7
[2] = target: A/N1 Vietnam/1203/2004 (Influenza A virus); assay: SPR (Biacore), NA on anti-Avi chip, 1:1 model; NA code NA-3
[3] = target: N2 neuraminidase from A/South Australia/34/2019 (Influenza A virus A/South Australia/34/2019); assay: SPR (Biacore), NA on anti-Avi chip, 1:1 model; NA code NA-17, 82-469 (+glyc245)
[4] = target: N2 A/Hong_Kong/2671/2019 (82-469) (Influenza A virus); assay: SPR (Biacore), NA on anti-Avi chip, 1:1 model; NA code NA-18 (+glyc245)
[5] = target: N9 Hong Kong/56/2015 (Influenza A virus); assay: SPR (Biacore), NA on anti-Avi chip, 1:1 model; NA code N9
[6] = target: B/Perth/211/2011 (Influenza B virus); assay: SPR (Biacore), NA on anti-Avi chip, 1:1 model; NA code BNA-2
[7] = target: B/Massachusetts/02/2012(Yamagata) (Influenza B virus); assay: SPR (Biacore), NA on anti-Avi chip, 1:1 model; NA code BNA-3
[8] = target: N2 neuraminidase from H3N2 A/Tanzania/205/2010 (Influenza A virus A/Tanzania/205/2010 (H3N2))
[9] = target: N2 A/Switzerland/8060/2017 (82-469) (Influenza A virus); assay: SPR (Biacore), NA on anti-Avi chip, 1:1 model; NA code NA-16 (+glyc245)
[10] = target: B/Brisbane/602008 or 33/2008 (Victoria) (Influenza B virus); assay: SPR (Biacore), NA on anti-Avi chip, 1:1 model; NA code BNA-6
N9 NA (FIGS. 96A-96C) [11] = assay: Bio-Layer Interferometry (BLI)
N9 NA (FIGS. 96A-96C) [12] = assay: Bio-Layer Interferometry (BLI); printed as ka
N9 NA (FIGS. 96A-96C) [13] = assay: Bio-Layer Interferometry (BLI); printed as kdis
[14] = target: N2 neuraminidase from A/South Australia/34/2019 (Influenza A virus A/South Australia/34/2019); assay: SPR; NA-17; set-up: unit not given beside the values
[15] = target: N2 A/Hong_Kong/2671/2019 (82-469) (Influenza A virus); assay: SPR; NA-18; set-up: unit not given beside the values
[16] = target: N2 A/Hong_Kong/2671/2019 (82-469) (Influenza A virus); assay: SPR, 1:1 binding; NA-18 "+glyc245"
[17] = target: N2 neuraminidase from H3N2 A/Tanzania/205/2010 (Influenza A virus A/Tanzania/205/2010 (H3N2)); assay: SPR; NA-5; set-up: unit not given beside the values
[18] = target: N2 neuraminidase from H3N2 A/Tanzania/205/2010 (Influenza A virus A/Tanzania/205/2010 (H3N2)); assay: SPR, 1:1 binding; NA-5 "-glyc245"
[19] = target: N2 neuraminidase from A/South Australia/34/2019 (Influenza A virus A/South Australia/34/2019); assay: SPR, 1:1 binding; NA-17 "+glyc245"

| Binder | fold-change in affinity compared to FNI9-v1.1 [1] | fold-change in affinity compared to FNI9-v1.1 [2] | fold-change in affinity compared to FNI9-v1.1 [3] | fold-change in affinity compared to FNI9-v1.1 [4] | fold-change in affinity compared to FNI9-v1.1 [5] | fold-change in affinity compared to FNI9-v1.1 [6] | fold-change in affinity compared to FNI9-v1.1 [7] | fold-change in affinity compared to FNI9-v1.1 [8] | fold-change in affinity compared to FNI9-v1.1 [9] | fold-change in affinity compared to FNI9-v1.1 [10] | Kd (N9 NA (FIGS. 96A-96C) [11]) | kon (N9 NA (FIGS. 96A-96C) [12]) | koff (N9 NA (FIGS. 96A-96C) [13]) | KD compared to v1.1 [14] | KD compared to v1.1 [15] | Kd [16] | KD compared to v1.1 [17] | Kd [18] | Kd [19] |
| --- | --- | --- | --- | --- | --- | --- | --- | --- | --- | --- | --- | --- | --- | --- | --- | --- | --- | --- | --- |
| FNI9-v4.1 (antibody, V domains shown) VH: QVHLVQSGAEVKEPGSSVTVSCKASGGSFSNQAISWVRQAPGQGLEWMGGIFPISGTPTSAQRFQGRVTFTADESTTTVYMDLSSLRSDDTAVYYCARAGSDYFNRDLGWENYYFASWGQGTLVTVSS VL: EIVMTQSPATLSLSSGERATLSCRASRSVSSNLAWYQQKPGQAPRLLIYDASTRATGFSARFAGSGSGTEFTLTISSLQSEDSAIYYCQQYNNWPPWTFGQGTKVEIK | 1.44 | 1.06 | 1.3 | 1.85 | 1.31 | 1.48 | 1.24 | 1.76 | 1.06 | 0.78 |  |  |  |  |  |  |  |  |  |
| FNI9-v9.1 (antibody, V domains shown) VH: QVHLVQSGAEVKEPGSSVTVSCKASGGSFNNQAISWVRQAPGQGLEWMGGIFPISGTATSAQRFQGRVTITADESTTTVYMDLSSLRSDDTAVYYCARAGSDYFNRDLGWENYYFASWGQGTLVTVSS VL: EIVMTQSPATLSLSSGERATLSCRASRSVSSNLAWYQQKPGQAPRLLIYDASTRATGFSARFAGSGSGTEFTLTISSLQSEDSAIYYCQQYNNWPPWTFGQGTKVEIK | 1.53 | 0.93 | 2.99 | 1.15 | 8.43 | 1.59 | 0.92 | 0.81 | 0.93 | 0.81 | 0.19 nM | 456000 M⁻¹ s⁻¹ | 8.66e-05 s⁻¹ |  |  |  |  |  |  |
| Fab FNI9-v8.1 (Fab, V domains shown) VH: QVHLVQSGAEVKEPGSSVTVSCKASGGTFNNQAISWVRQAPGQGLEWMGGIFPISGTPTSAQRFQGRVTFTADESTTTVYMDLSSLRSDDTAVYYCARAGSDYFNRDLGWENYYFASWGQGTLVTVSS VL: EIVMTQSPATLSLSSGERATLSCRASRSVSSNLAWYQQKPGQAPRLLIYDASTRATGFSARFAGSGSGTEFTLTISSLQSEDSAIYYCQQYNNWPPWTFGQGTKVEIK |  |  |  |  |  |  |  |  |  |  |  |  |  | 0.78 | 0.83 | 8.64 nM | 0.78 | 2.57 nM | 99.5 nM |
| FNI9-v8.1 (antibody, V domains shown) VH: QVHLVQSGAEVKEPGSSVTVSCKASGGTFNNQAISWVRQAPGQGLEWMGGIFPISGTPTSAQRFQGRVTFTADESTTTVYMDLSSLRSDDTAVYYCARAGSDYFNRDLGWENYYFASWGQGTLVTVSS VL: EIVMTQSPATLSLSSGERATLSCRASRSVSSNLAWYQQKPGQAPRLLIYDASTRATGFSARFAGSGSGTEFTLTISSLQSEDSAIYYCQQYNNWPPWTFGQGTKVEIK | 1.35 | 1.98 | 1.2 | 0.4 | 1.1 | 1.03 | 1.17 | 0.98 | 0.98 | 0.92 | < 0.001 nM | 463000 M⁻¹ s⁻¹ | < 1e-07 s⁻¹ |  |  |  |  |  |  |
| Fab FNI9-v4.1 (Fab, V domains shown) VH: QVHLVQSGAEVKEPGSSVTVSCKASGGSFSNQAISWVRQAPGQGLEWMGGIFPISGTPTSAQRFQGRVTFTADESTTTVYMDLSSLRSDDTAVYYCARAGSDYFNRDLGWENYYFASWGQGTLVTVSS VL: EIVMTQSPATLSLSSGERATLSCRASRSVSSNLAWYQQKPGQAPRLLIYDASTRATGFSARFAGSGSGTEFTLTISSLQSEDSAIYYCQQYNNWPPWTFGQGTKVEIK |  |  |  |  |  |  |  |  |  |  |  |  |  | 1.04 | 1.91 | 19.9 nM | 1.63 | 5.35 nM | 133 nM |
